# Results taken from the nanobody polyreactivity screen of Harvey et al. (2022).
# Assay: yeast display, Sf9 membrane polyspecificity reagent, FACS + sequencing; frameworks hold sequencing errors
# How it was run: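 Galactose-induced (36–48 hours) yeast carrying a synthetic nanobody display library were exposed to 10% biotinylated, detergent-solubilized Sf9 membrane reagent at 4 °C for 1 hour. FACS followed streptavidin microbead enrichment, using low and high (top ~1%) gates for expression (anti-HA) and reagent binding (streptavidin). Colony PCR, MiSeq 2 × 250 sequencing and CDR-length filtering followed. Labels for polyreactivity reflect the gate of origin.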
row,Sequence,polyreactivity (PSR sort gate)
1,QVQHVESGGGLVQAGGSLRLSCAASGRIFHGYAMGWYRQSPGKERELVAAITSRGGSTYYADSVKGRFTISRDNAKNTVYLQMNSLKPEDTAVYYCNAGRYLYAFDYWGQGTQVTVSS,low polyreactivity
2,QVQLVESGGGIVQAGGSLRLSCAASGSIFPDNTMGWYRQAPGKERELVAAITGDGSTYYADSVKGRFTISRDNAKNTVYLERNSLKPEDTAVYYCAAASPSWSYWPRDYWGQGTQVTVSS,low polyreactivity
3,QVQLVESGGCLVQAGGSLRLSCAASGRIFFLYAMGWYRQAPGKERELVAAITWSADGTYYADSVKGRFTISRDNAKNTVYLQMNSLKPEDTAVYYCNADAYTTASSYNWWYYYWGQGTQVTVSS,low polyreactivity
4,QVQLVESGGGLVQAGGSLRLSCAASGSTFDYYDMGWYRQAPGKERELVAAINWSGGSTYYADSVKGRFTISRDNAKNTVYLQMNSLKPEDTAVYYCAADLSSRGISQDDYWGQGTQVTVSS,high polyreactivity
5,QVQLVESGGGLVQAGGSLRLSCAASGRTFRIYAMGWYRQAPGKERELVAAIRWSGGTTYYADSVKGGFTISRDNAKNTVYLQMNSLNPDDTAVYYCAADSTNRYDYWGQGTQVTVSS,high polyreactivity
6,QVQLVESGGGLVQAGGSLRLSCAASGNTFCQYAMGWYRQAPGKERELVAAITRSTGSTYYADSVNGRFTISRDNAKNTVYLQMISLKPEDTAVYYCAADFYRHYFRVDSWGQGTQVTVSS,low polyreactivity
7,QVQLVESGGGLVQAGGSLRLSCAASGSIFFEYAMGWYRQAPGKERALVASINRGGGSTYYADSVKGRFTISRDYAKNTVYLQMNILIPEDTAVYYCAAQWKYRQYYLDYYWGQGTQVTVSS,low polyreactivity
8,QVQLVESGGGLVQAGGSLRLSCAPSGLIFDANAMGWYRQAPGKERELVAAISNGDSTYYADSVKGRFTISRDNAKNTLYLQMNSLKPEDTAVYYCNARIIYRKWLLRSGTFNYWGQGTQVTVSS,low polyreactivity
9,QVQLVESGGGLVQAGGSLRLSCAASGRTFRGNAMGWYRQAPGKERELVATITFSGGSTYYADSVKWRFTISRDNAKNTVYLQMNSLKPEDTAVYYCAVRGLHLVWVPFGYDYWGQGTQVTVSS,low polyreactivity
10,QVQLVESGGGLVQAGGSIRLSCAASGIIFYYYAMGWYRQAPGKERELVAGISYSGGSTYADSVKGRFTISRDNAKNTVYLQMNSLKPEDTAVYYCAADYDYGGHWYDYWGQGTQVTVSS,low polyreactivity
11,QVQLVESGGGLVQAGGSLRLSCAASGFTLYPYAMGRYRKAPGKERELVAAISSSSGSTYYADSVKGRFTISRDNAKNTVYVQMNSLKPDDTAVYYCARDSGYYWYYRYGYWGQGTQVTVSS,high polyreactivity
12,QVQLVESGGGLVQAGGSLRLSCAASGSTFRQYTMGWYRQAPGKERELVAAISRGCGNTYYADSVKGRFTISRDNAKNTVYLQMNSLKPEDTAVYYCAADRSYSGDSWGQGTQVTVSS,high polyreactivity
13,QVQLVDSGGGLVQAGGSLRLSCAASGITFGRYAMGWYRQAPGKERELVATITVNGGRTYYADSVKGRFTISRDNAKNTVYLQMNSLKPEDTAVYYCAAESAVDFDYWGQGTQVTVSS,low polyreactivity
14,QVQLVESGGVLVQAGGSLRLSCAASGSILSNYAMGWYRQAPGKERELVASISSTAGSTYYADSVKGRFTISRDNCKNTVYLQMNSLKPEDTAVYYSIKVFGGGTYDFWGQGTQVTVSS,low polyreactivity
15,QVQLVESGGGLVQAGGSLRLSCAASGSTFWINAMGWYRPAPGKEREFVAAIRWNGGSTNYADSVKGRFTHSRDNAKNTVYLPMNSLKPEDTAVYYCAADGYIGWRHIYEYWGQGTQVTVSS,low polyreactivity
16,QVQLVESGGGLVQAGGSLRLSCAASGRTFKHYAMGWYRPAPGKERELVAAITSGGSTYYADSVKGRFTISRDNAKNTVYLQMNSLKPEDTAVYYCNKESYFDTYRRYDSWGQGTQVTVSS,low polyreactivity
17,QVQLVESGGGLVQAGGSLRLSCAASGLIFLGYARGWYRQSPGKERELVASIRTGGSTSYADSVKGRFTISRDNAKNTVYLQMNSLKPEDTAVYYCAADRGRPNLPGDYWGQGTQVTVSS,low polyreactivity
18,QVQLVESGGGLVQAGGSLRLSCAASGSTFKIYAMAWYRQAPGKERELVAAITGSGGSTYYADSVKGRFTISRDNAKNTVYLQMNSLKPEDTAVYYCAVDVYYYVATEFYEYDYWGQGTQVTVSS,high polyreactivity
19,QVQLVESGGGLVQAGGSLRLSCAASGSTLLSNAMGWYTQAPGKERELVAAINYSGGRTYYADSVKGRFTISRDNAKNTVYLQMNSLKPEDTAVYYCNALSSGHGSSSRYDYWGQGTQVTVSS,low polyreactivity
20,QVQLEESGGGLVQAGGSLRLSCAASGSIFRPNAMGWYRQAPGKERELVASINSGSGSTYYADSVKGRFTISRDNAKNTVYLQMNSLKPEDTAVYYCNAAGAYPYYSEDYYWGQGTQVTVSS,low polyreactivity
21,QVQLVESGGGLVQAGGSLRLSCAASGFTFRRYAMGWYRQAPGKERELVAAISYSGGITYYADSVKGRFTISRDNAKNTVYLQMNSLKPEDTAVYYCAAESVWTWYYTTAGMDYWGQGTQVTVSS,high polyreactivity
22,QVQLVESGGGLVQAGGSLRLSCAASGRTFGWYAMGWYRQAPGKERELVAAITYPTGSTYYADSVKGRFTISRDNAKNTVYLQMNSLKPEDTAVYYCAAQGYISAGYKYDYWGQGTQVTVSS,low polyreactivity

row,Sequence,polyreactivity (PSR sort gate)
1,QVQLVESGGGLVQAGGSLRLSCAASGRIFDLNVMGWYRQAPGKERELVAAIRSGGRTNYADSVKGRFTISRDNAKNTVYLQMNSLKPEDTAVYYCNVRRGYWHPRYGWANYDYWGQGTQVTVSS,high polyreactivity
2,QVQLVESGGGLVQAGGSLRLSCAASGSIFVYYAMGWYRQAPGKERELVAAISSRGGSTYYADSVKGRFTISRDNAKNTVYLQMNSLKPEDTAVYYCAAYTLDGVNGRVLDDYWGQGTQVTVSS,low polyreactivity
3,QVQLVESGGGLVQAGGSLRLSCAASGRTLYGNVMGWYRQAPGKERELVAAISRRGGSTSYADSVKGRFTISRDNAKNTVYLQMNSLKPEDTAVYYCAAGRQRYAFKYYYWGQGTQVTVSS,high polyreactivity
4,QVQLVESGGGLVQAGGSLRLSCAASGSTFDYYAMGWSRQAPGKERELVAGITGGGSTYYADSVKGRFTISRDNAKNTVYLQMNSLKPEDTAVYYCNAGPALRYDYWGQGTQVTVSS,low polyreactivity
5,QVQLVESGGGLVQAGGSLRLSCAASGSIFKRYAMGWYRQAPGKERELVAAISWSGGNTYYADSVKGRFTISRDNAKNTVYLQMNSLKPEDTAVYYCAALHRVGYSEYGYWGQGTQVTVSS,high polyreactivity
6,QVKLVDSGGGLVQAGGSLRLTCAASGITFDKYAMGWYRQAPGKERELVAAITKSSGSTYYADSVKGRFTISRVNAKNTDYLQMNSLKAEDTAVYYCAAGIVYCEYFWGQGTQVTVSS,high polyreactivity
7,QVQLVESGGGLVQAGGSLRLSCAASGFIFTEYAMGWYRQAPGKEREFVAAISWSGGSTYYADSVKGRFTISRDNAKNTVYLQMNSLKPEDTAVYYCAKRSRGVKYDYWGQGTQVTVSS,high polyreactivity
8,QVLLQESGGRLVQAGGSLRLGCEPSGTISPAYYMGRYHQAPGKEREFVAAITYGTNTYYADSVKGRCTISRDIAKNTVYLQMNSLKPEDSAVYYCSATAGYNGAHDYCGQGTQVTVSS,low polyreactivity
9,QVQLVESGGGLVQAGGSLRLSCAASGRIFSGNAMGWYRQAPGKERELVAAISWGGGRTYYADSVKGRFTISRDNAKNTVYLQMNSLKPEDTAVFYCNTVRQRARFTKVDYWGQGTQVTVSS,high polyreactivity
10,QVHLVESGGGLVQAGGSLRLSCAASGRIFVFNAMGWYRQAPGKDRELVAAISRSAFSTYYADSVKGRFTISRDNAKNTVYLHMISLIPEDTAVYYCTDERTYWFFWEMDSWGQGTQVTVSS,low polyreactivity
11,QVQLVESGGGLVQAGGSLRLSCAASGSTFYFNAMGWYRQAPGKERELVAGIRYSGSSTYYADSVKGRFTISRDNAKNTVYLQMNSLKPEDTAVYYCAARYSVYPRVSKYSYRFNYWGQGTQVTVSS,high polyreactivity
12,QVQLVESGGGLVQAGGSLRLSCAASGITFYYYTMGWYRQAPGKERELVAGITRGGRTYYADSVKGRFTISRDNAKNTVYLQMNSLKPEDTAVYYCAADYSYIYGFDYWGQGTQVTVSS,low polyreactivity
13,QVQLVESGGGLVQAGGSLRITCAASGSILFAKSMGWYRQAPGKERELVADIRGSGSTYYADSVKGRFTISRDNAKNTVYLQMNSLKPEDTAVYYCAKRHLISIPDYGRHEYYYWGQGTQVTVSS,low polyreactivity
14,QVQLVESGGCLVQAGGSLRFSCAASGLTFGRNAMGWYRQAPGTERELVAAISRSGGRTSYADSVKGRFTMSRDNAKNTVYLQMNSLKPEETAVYYCAARSDVYTHDYWGQGTQVTVSS,high polyreactivity
15,QVQLVESGGGLVQAGGSLRLSCAASGNIFPYNAMGWYRQAPGKERELVASISSGGSTNYADSVKGRFTISRDNAKNTVYLQMNSLKPEDTAVYYCAKDQSVLSRGGTYDYWGQGTQVTVSS,low polyreactivity
16,QVQLVESGGGLVQAGGSLRLTCAASGSIFGYAMGWSRQAPGKERELVAALSFSGVSTYYAYSVKGRFTISRDNAKNTVYLQMNSLKPEDTAVYYCNAYSDGDEDYWGQGTQVTVSS,low polyreactivity
17,QVQLVESGGGLVQAGGSLRLSCAASGITFWVYVKGWYRQAPGKEREFVADISSGAGTTYYADSVKGRFTISRDNAKNTVYLQMNSLKPEDTAVYYFAARRWWPQWYDYWGQGTQVTVSS,high polyreactivity
18,QVQLVESGGGLVQAGGSLRLSCAASGSIFGTYAKGWYRQAPGKERELVAAISKRGSTTSYADSVKGRFTISRDNAKNTVYLQMNSLKPEDTAVYYCAALTRNSGGYGSWGQGTQVTVSS,high polyreactivity
19,QVQRVDSGGGLVQAGGSLRLSCAASGRILRDYDRGWYRQAPGKDRELVAAINWSDGSTYYADSVKGRFTISRDNAKNTVYLQMNSLKPEDTAVYYCAASRWRPLERGTTWLHDYWGQGTQVTVSS,low polyreactivity
20,QVQLVESGGGLVQAGGSLRLSCAASGSTIYNYAMGSYRPAPGKVRELVASITWNGGSTYYADSVKGRFTISRDNAKNTVYLQMNSLKPEDTAVYYCAAEWTWTYPYDYWGQGTQVTVSS,low polyreactivity
21,QVQLVDSGGGKVQAGGSLRLSCAASGRTFLVYAMGWYRQAPGKERELVAAISRSGGRTSYADSVKGRFTISRDNAKNTVYLQMNSLKPEDTAVYYCAASGPPCDMDYWGQGTQVTVSS,high polyreactivity
